Patent US7119066 (Regeneron, dated 2006)

Tests used:
[1] = biological target: T1, human CNTF receptor alpha-component on MG87/CNTFR fibroblasts (human, UniProt P26992 23-342); test: competition with 125I-rat CNTF on MG87/CNTFR cells
T1 construct: whole, on cells; also called huCNTFR; CNTFRα
T1 sequence (looked up): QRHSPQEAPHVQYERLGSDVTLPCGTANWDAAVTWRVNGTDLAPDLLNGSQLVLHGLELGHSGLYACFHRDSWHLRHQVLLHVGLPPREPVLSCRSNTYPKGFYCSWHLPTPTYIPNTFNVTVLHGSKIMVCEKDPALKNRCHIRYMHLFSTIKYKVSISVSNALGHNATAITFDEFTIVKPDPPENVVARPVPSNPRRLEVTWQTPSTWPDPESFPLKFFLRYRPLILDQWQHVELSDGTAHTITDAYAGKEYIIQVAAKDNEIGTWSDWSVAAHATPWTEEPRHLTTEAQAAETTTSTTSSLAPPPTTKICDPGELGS
Experimental: (§1) Binding was performed directly on cell monolayers. Cells in culture wells were washed once with assay buffer consisting of phosphate buffered saline (PBS; pH 7.4), 0.1 mM bacitracin, 1 mM PMSF, 1 µg/ml leupeptin, and 1 mg/ml BSA. […] Non-specific binding was determined in the presence of 1,000-fold excess of unlabelled CNTF. Specific binding towards MG87/CNTFR was 80–90%. Data were analyzed using the […] program (ISI, Philadelphia, Pa.).
Similar results were obtained from competition experiments with mouse fibroblasts transfected with a plasmid directing the expression of the human CNTF receptor (FIG. 4b).

[2] = biological target: T2, rat CNTF receptor on rat superior cervical ganglia (SCG) neurons (rat, UniProt Q08406 23-342); test: competition with 125I-rat CNTF on rat SCG neurons
T2 construct: whole, on cells; also called rat SCG neurons; rat receptor
T2 sequence (looked up): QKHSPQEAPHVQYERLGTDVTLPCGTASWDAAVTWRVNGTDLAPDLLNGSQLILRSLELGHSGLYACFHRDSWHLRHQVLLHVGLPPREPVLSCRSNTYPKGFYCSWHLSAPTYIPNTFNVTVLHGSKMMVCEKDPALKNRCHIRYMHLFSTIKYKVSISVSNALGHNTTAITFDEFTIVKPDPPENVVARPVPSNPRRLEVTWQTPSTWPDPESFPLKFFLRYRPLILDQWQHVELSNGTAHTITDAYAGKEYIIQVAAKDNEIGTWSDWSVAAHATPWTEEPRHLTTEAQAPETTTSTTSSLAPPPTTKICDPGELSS
Experimental: Growth medium consisted of Ham's nutrient mixture F12 with 10% heat-inactivated fetal bovine serum (Hyclone), nerve growth factor (NGF) (100 ng/ml), penicillin (50 U/ml) and streptomycin (50 µg/ml). Cultures were maintained at 37° C. in a humidified 95% air/5% CO_2 atmosphere. Ganglion non-neuronal cells were eliminated by treatment with araC (10 µM) on days 1 and 3 of culture. Cultures were fed 3 times/week and were routinely used for binding assays within 2 weeks.
as §1

fold less potent than rat CNTF [1]: 12 times | fold less potent than unlabelled rat CNTF [2]: 90 times
B1: recombinant human CNTF (ciliary neurotrophic factor) (ligand)
chain: MAFTEHSPLTPHRRDLCSRSIWLARKIRSDLTALTESYVKHQGLNKNINLDSADGMPVASTDQWSELTEAERLQENLQAYRTFHVLLARLLEDQQVHFTPTEGDFHQAIHTLLLQVAAFAYQIEELMILLEYKIPRNEADGMPINVGDGGLFEKKLWGLKVLQELSQWTVRSIHDLRFISSHQTGIPARGSHYIANNKKM
notes: also called rHCNTF; hCNTF
